# Columns and labels:
# [1] = molecular target: T1, L1 (DV1-GV4), soluble leucine zipper γδ TCR heterodimer of a delta variable 1 chain and a gamma variable 4 … (human); test: DELFIA ELISA, coated antigen;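 note: binding of antibody supernatants or protein-A purified antibodies to plate-coated antigen (3 µg/ml recombinant TCR or BSA), 1 h incubation at room temperature, DELFIA readout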
# T1 construct: also called bt-L1; not shown: histidine tag/linker said to follow the zipper
# BSA = molecular target: T2, BSA (bovine, UniProt P02769); test: DELFIA ELISA, coated antigen;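 note: binding of antibody supernatants or protein-A purified antibodies to plate-coated antigen (3 µg/ml recombinant TCR or BSA), 1 h incubation at room temperature, DELFIA readout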
# T2 construct: coated at 3 µg/ml; also called bovine serum albumin, control antigen of the DELFIA ELISA
# Experimental: (§1) A DELFIA ELISA binding method was also employed to assess binding of antibody supernatants or further protein-A purified antibody. In brief, MaxiSorp plates were coated with 3 μg/ml of antigen BSA or L1 (DV1-GV4), L2 (DV1-GV2), L3 (DV1-GV8), or L4 (DV2-GV4) recombinant TCR antigen. Plates were then washed with PBS, blocked with PBS/skimmed milk and then test article added and incubated for 1 hour at room temperature.
# [2] = molecular target: L2 (DV1-GV2), soluble leucine zipper γδ TCR heterodimer of a delta variable 1 chain and a gamma variable 2 … (human); test: DELFIA ELISA, coated antigen;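 note: binding of antibody supernatants or protein-A purified antibodies to plate-coated antigen (3 µg/ml recombinant TCR or BSA), 1 h incubation at room temperature, DELFIA readout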
# Experimental: as §1
# [3] = molecular target: L3 (DV1-GV8), soluble leucine zipper γδ TCR heterodimer of a delta variable 1 chain and a gamma variable 8 … (human); test: DELFIA ELISA, coated antigen;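 note: binding of antibody supernatants or protein-A purified antibodies to plate-coated antigen (3 µg/ml recombinant TCR or BSA), 1 h incubation at room temperature, DELFIA readout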
# Experimental: as §1
# [4] = molecular target: T1, L1 (DV1-GV4), soluble leucine zipper γδ …; test: SPR (Reichert 4SPR), L1 coupled to chip, IgG1 flowed, steady state 1:1 fit; experiment 1
# Experimental: (§2) In brief, the binding affinity of the antibodies to target (i.e. the human Vγ4 chain of a γδ TCR) was established by SPR analysis using a Reichert 4SPR instrument (Reichert Technologies). […] All experiments were performed at room temperature, with the samples kept at 4° C. before flowing over the chip. Steady state fitting was determined according to Langmuir 1:1 binding using software TraceDrawer (Reichert Technologies).
# [5] = molecular target: T1, L1 (DV1-GV4), soluble leucine zipper γδ …; test: SPR (Reichert 4SPR), L1 coupled to chip, IgG1 flowed, steady state 1:1 fit; experiment 2
# Experimental: as §2
# [6] = molecular target: T1, L1 (DV1-GV4), soluble leucine zipper γδ …; test: SPR (Reichert 4SPR), L1 coupled to chip, IgG1 flowed, steady state 1:1 fit; average
# Experimental: as §2
# T2 sequence (P02769 25-607 limits assumed): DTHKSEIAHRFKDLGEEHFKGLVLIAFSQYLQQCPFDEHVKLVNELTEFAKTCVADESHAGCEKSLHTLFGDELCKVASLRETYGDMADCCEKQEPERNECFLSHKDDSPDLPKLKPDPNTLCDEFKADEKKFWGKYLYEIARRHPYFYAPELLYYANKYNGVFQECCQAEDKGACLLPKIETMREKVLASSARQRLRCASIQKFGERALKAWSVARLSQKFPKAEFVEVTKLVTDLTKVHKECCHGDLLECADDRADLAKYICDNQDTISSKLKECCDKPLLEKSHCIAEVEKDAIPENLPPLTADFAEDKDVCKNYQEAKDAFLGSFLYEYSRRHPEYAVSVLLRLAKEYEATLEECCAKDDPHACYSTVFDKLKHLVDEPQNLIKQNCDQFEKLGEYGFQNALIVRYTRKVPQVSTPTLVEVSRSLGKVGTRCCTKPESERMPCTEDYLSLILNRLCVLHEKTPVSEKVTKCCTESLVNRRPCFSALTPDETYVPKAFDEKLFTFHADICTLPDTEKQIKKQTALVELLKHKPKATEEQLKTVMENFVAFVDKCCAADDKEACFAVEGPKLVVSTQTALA
# Chain of L3 (DV1-GV8), soluble leucine zipper γδ TCR heterodimer of a delta variable 1 chain and a gamma variable 8 … (human) (chain, as listed by the source mutant, chain 1 of 2): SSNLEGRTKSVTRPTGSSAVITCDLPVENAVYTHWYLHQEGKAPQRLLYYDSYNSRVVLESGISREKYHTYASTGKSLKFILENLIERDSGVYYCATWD
# Chain of L3 (DV1-GV8), soluble leucine zipper γδ TCR heterodimer of a delta variable 1 chain and a gamma variable 8 … (human) (chain, as listed by the source mutant, chain 2 of 2): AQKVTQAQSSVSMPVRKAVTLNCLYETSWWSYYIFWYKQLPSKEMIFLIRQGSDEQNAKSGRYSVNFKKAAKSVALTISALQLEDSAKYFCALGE
# T1 sequence (main, as listed by the source, chain 1 of 2): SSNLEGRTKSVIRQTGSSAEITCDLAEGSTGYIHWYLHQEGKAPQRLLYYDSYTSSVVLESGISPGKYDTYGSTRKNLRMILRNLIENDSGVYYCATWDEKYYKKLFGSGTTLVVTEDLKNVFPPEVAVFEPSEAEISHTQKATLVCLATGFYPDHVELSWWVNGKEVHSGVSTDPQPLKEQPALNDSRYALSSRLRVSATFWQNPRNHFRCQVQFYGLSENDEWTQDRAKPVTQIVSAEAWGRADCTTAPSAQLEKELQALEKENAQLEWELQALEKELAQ
# T1 sequence (main, as listed by the source, chain 2 of 2): as the sequence (chain, as listed by the source mutant, chain 2 of 2) above
# Chain of L2 (DV1-GV2), soluble leucine zipper γδ TCR heterodimer of a delta variable 1 chain and a gamma variable 2 … (human) (chain, as listed by the source mutant, chain 1 of 2): as the sequence (main, as listed by the source, chain 1 of 2) above, with T30N, L48Q, T54N, S56K, I63V, D69Y, G72A, K76N, M80L counted along it
# Chain of L2 (DV1-GV2), soluble leucine zipper γδ TCR heterodimer of a delta variable 1 chain and a gamma variable 2 … (human) (chain, as listed by the source mutant, chain 2 of 2): as the sequence (chain, as listed by the source mutant, chain 2 of 2) above
DELFIA ELISA response (FU) [1] [FU],DELFIA ELISA response (FU) (BSA),binding result (BSA),DELFIA ELISA response (FU) [2] [FU],DELFIA ELISA response (FU) [3] [FU],Kd [4] [nM],Kd [5] [nM],Kd [6] [nM],Binder
119000,63,no binding,844,156,–,–,–,"G4_15 (antibody, human IgG1, V domains shown, also called clone G4_15) VH: EVQLVQSEAEVKKPGASVKVSCKASGYTFTRHYMHWVRQAPGQGLEWMGLINPSGSSTVYAQKFQGRVTLTRDTSTSTDYMELSSLRSEDTAVYYCARDNSHLDQVWWFDPWGQGTLVTVSS VL: SQSALTQPASVSGSPGQSITISCTGTSSDVGGYNYVSWYQQHPGKAPKLMIYDVSNRPSGVSNRFSGSKSGNTASLTISGLQAEDEADYYCSSYGSGSVFGTGTKLTVLG"
21700,40,no binding,486,885,–,–,–,"G4_25 (antibody, human IgG1, V domains shown, also called clone G4_25) VH: EVQLVESGAEVKKPGSSVKVSCKASGGTFSSYAISWVRQAPGQGLEWMGGIIPIFGTANYAQKFQGRVTITADKSTSTAYMELSSLRSEDTAVYYCARSLRDGYNYIGSLGYWGQGTLVTVSS VL: SQSALTQPRSVSGSPGQSVTISCTGTSSDVGGYNYVSWYQQHPGKAPKLMIYEVSNRPSGVSNRFSGSKSGNTASLTISGLQAEDEADYYCSSYGSGSVFGTGTKLTVLG"
22800,51,no binding,680,870,–,–,–,"G4_26 (antibody, human IgG1, V domains shown, also called clone G4_26) VH: QVQLVQSGAEVKKPGSSVKVSCKASGGTFSSYAISWVRQAPGQGLEWMGGIIPIFGTANYAQKFQGRVTITADESTSTAYMELSSLRSEDTAVYYCASSRGSGWFPLGYWGQGTLVTVSS VL: SQSGLTQPASVSGSPGQSITISCTGTSSDVGSYNLVSWYQQHPGKAPKLMIYEVSKRPSGVSNRFSGSKSGNTASLTISGLQAEDEADYYCSSFGSGSIFGTGTKLTVLG"
–,–,–,90,190,–,–,–,"G4_4 (antibody, human IgG1, V domains shown, also called clone G4_4) VH: QVQLVESGGGLVQPGGSLRLSCAASGFTFSSYAMSWVRQAPGKGLEWVSAISGSGGSTYYADSVKGRFTISRDNSKNTLYLQMSSLRVEDTAVYYCAKSSVGWWSFDYWGQGTMVTVSS VL: not shown"
145000,57,no binding,109,187,–,–,–,"G4_10 (antibody, human IgG1, V domains shown, also called clone G4_10) VH: QVQLVESGGGVVQPGRPLRLSCAASGFTFSSYAMHWVRQAPGKGLEWVSAISGSGGSTYYADSVKGRFTISRDNSKNTLYLQMNSLRAEDTAVYYCAKDGAVDFWRNGMDVWGRGTLVTVSS VL: DIVMTQPPLSLPVTLGHPASISCKSSQSLEYSDGNTYLNWFQQRPGQSPRRLIYKVSNRDSGAPDRFSGSGSGTDFTLEISRVEAEDVGVYYCMQGTLWPPTFGQGTKVDIKR"
142000,55,no binding,73,192,–,–,–,"G4_19 (antibody, human IgG1, V domains shown, also called clone G4_19) VH: EVQLVQSGAEVKKPGASVKVSCKASGYTLTSYYMHWVRQAPGQGLEWMGIINPSGGSTSYAQKFQGRVTMTRDTSTSTVYMELSSLRSEDTAVYYCARERGYSYGDGMDVWGQGTTVTVSS VL: SNFMLTQPHSVSESPGKTVTISCTRSSGSIASNYVQWYQQRPGSPPITLIYDDDQRPSGVPHRFSGSIDTSSNPASLTISGLKTEDEADYYCQSYDSSNHVVFGGGTKLTVLG"
163000,86,no binding,–,–,–,–,–,"G4_5 (antibody, V domains shown, also called clone G4_5) VH: EVQLVQSGAEVKKPGSSVKVSCKASGYTFTSYGISWVRQAPGQGLEWMGWIGAYNGNTNYAQKLQGRVTMSTDTSTSTAYMELRSPRSDDTAVYYCARGGTGGDHVFAYWGQGTTVTVSS VL: not shown"
178000,69,no binding,84,118,–,–,–,"G4_16 (antibody, human IgG1, V domains shown, also called 1248_P02_D10; clone G4_16) VH: EVQLLESGAEVKKPGASVKVSCKASGYTFTSYGISWVRQAPGQGLEWMGWISAYNGNTNYAQKLQGRVTMTTDTSTSTAYMELRSLRSDDTAVYYCARDYGDFYGMDVWGQGTLVTVSS VL: SQSVLTQPPSASGSPGQSVTFSCTGTSSDIGAFNSVSWYQQHPGKAPKLLIYEITKRPSGVPDRFSGSKSGNTASLTISVLQAEDEADYYCTSYAGSNTLIFGGGTKVTVLG"
196000,78,no binding,94,270,–,–,–,"G4_13 (antibody, human IgG1, V domains shown, also called clone G4_13) VH: QVQLVESGAEVKKPGGSLRLSCAASGFTFSSYSMNWVRQAPGKGLEWVSSISGTSSYIYYADSVKGRFTISRDNAKNSLYLQMSSLRAEDTAVYYCARGGLGMVDPWGQGTLVTVSS VL: SNFMLTQPHSVSESPGKTVTISCTRSSGSIASNYVQWYQQRPGSSPSTVIYEDNQRPSGVPDRFSGSIDSSSNSASLTISGLRTEDEADYYCQSYDSSIYVVFGGGTKLTVLG"
208000,135,no binding,199,229,–,–,–,"G4_14 (antibody, human IgG1, V domains shown, also called clone G4_14) VH: EVQLVQSGAEVKKPGESLRISCKGSGYSFTSYWISWVRQMPGKGLEWMGRIDPSDSYTNYSPSFPGHVTISADKSISTAYLQWSSLKASDTAMYYCAADTAHGMDVWGRGTLVTVSS VL: SNFMLTQPHSVSESPGKTVTISCTRSRGSIAGNYVHWYQQRPGRAPTTVIYRDKERPSGVPDRISGSIDSSSNSASLTISGLKTEDEADYYCQSYDSSTHVVFGGGTKLTVLG"
154000,53,no binding,534,960,–,–,–,"G4_24 (antibody, human IgG1, V domains shown, also called clone G4_24) VH: QVQLQQSGPGLVKPSQTLSLTCAISGASVSSNSVAWNWIRQSPSRGLEWLGRTYYRSRWYNDYALSVKSRIIINPDTSKNQFSLQLNSVTPEDTAVYYCARDWSSTRSFDYWGRGTLVTVSS VL: not shown"
109000,47,no binding,567,980,–,–,–,"G4_22 (antibody, human IgG1, V domains shown, also called clone G4_22) VH: QVQLVESGGGLVQPGGSLRLSCAASGFTFSTYAMSWVRQAPGKGLEWVSTVSGSGGTTYYADSVKGRFTISRDNSKNTLYLQMNSLRAEDTAVYYCAKDSTAVTDWFDPWGRGTLVTVSS VL: DIQMTQSPSSLSASVGDRVTITCQASQDISNYLNWYQQKPGKAPKLLIYAASSLQSGVPSRFSVSGSGTDFTLTISNLQPEDFATYYCQQSYSIPWTFGQGTKVEIKR"
202000,78,no binding,100,244,–,–,–,"G4_1 (antibody, human IgG1, V domains shown, also called clone G4_1) VH: EVQLLESGGGVVQPGRPLRLSCAASGFTFSSYSMNWVRQAPGKGLEWVSSISSSSSYIYYADSVKGRFTISRDNSKNTLYLQMNSLRAEDTAVYYCAKGHWYFDLWGRGTLVTVSS VL: DIQMTQSPSSLSASVGDRVTITCQASQDISNYLNWYQQKPGKAPKLLIYDASNLETGVPSRFSGSGSGTDFTLTISSLQPEDFATYYCQQSYSTPVTFGPGTKVEIKR"
213000,88,no binding,216,239,3.69,2.03,2.86,"G4_3 (antibody, human IgG1, V domains shown, also called 1139_P01_A04; G4_03) VH: EVQLVESGGGLVQPGGSLRLSCAASGFTFSSYSMNWVRQAPGKGLEWVSSISSSSSYIYYADSVKGRFTISRDNSKNTLYLQMNSLRAEDTAVYYCARGGWLYDYWGQGTLVTVSS VL: DIQMTQSPSSLSASVGDRVTITCQASQDISNYLNWYQQKPGKAPKLLIYDASNLETGVPSRFSGSGSGTDFTLTISSLQPEDFATYFCQQSYSTPQTFGQGTKVDIKR"
201000,56,no binding,86,270,–,–,–,"G4_2 (antibody, human IgG1, V domains shown, also called clone G4_2) VH: QMQLVQSGAEVKKPGATVKISCKVSGYPFTDYYIHWVQQAPGKGLEWMGLVDPEDGQSRSAERFQGRVTITADTSTDTAYMELSSLRSEDTAVYYCATFPVAGFYGMDVWGQGTLVTVSS VL: DIQMTQSPSSLSASVGDRVTITCQASQDISNYLNWYQQKPGKAPKLLIYAASSLQSGVPSRFSGSGSGTDFTLTISGLQPEDFATYYCLEDYNYLWTFGQGTKLEIKR"
227000,65,no binding,576,984,–,–,–,"G4_28 (antibody, human IgG1, V domains shown, also called clone G4_28) VH: QVQLVESGGGLVQPGGSLRLSCAASGFTFDDYAMHWVRQAPGKGLEWVSGISAGGGSTNYAGSVKGRFTVSRDTSKNTLYLQMNSLRAEDTAVYYCVKSYVDTAMRYYYYYMDVWGQGTMVTVSS VL: SSYELTQDPAVSVALGQTVTITCQGDSLRNYYASWYRQKPGQTPVLVVYGKNNRPSGIPDRFSVSASGNTASLTITGAQAEDEGDYYCNSRDSSGVVFGGGTKVTVLG"
